This is an account of results in US20250320284A1 (AC IMMUNE, published 2025).

Assay [1] concerns the target T1, CARD domain of human ASC (human, UniProt Q9ULZ3 107-195).
T1 construct: biotinylated in BLI; also called hCARD; human CARD
T1 sequence: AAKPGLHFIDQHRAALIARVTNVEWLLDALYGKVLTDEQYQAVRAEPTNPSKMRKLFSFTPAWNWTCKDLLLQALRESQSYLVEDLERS
Put plainly: ELISA, coated hCARD. For orientation: ELISA stands for enzyme-linked immunosorbent assay.

The target of assay [2] is T2, human ASC (apoptosis associated speck-like protein containing a caspase-recruitment domain) (human, UniProt Q9ULZ3 1-195).
T2 construct: recombinant hASC in ELISA and SPR; endogenous ASC (cytoplasmic or specks) in Western blot and immunofluorescence; also called hASC; PYCARD
The assay is described as follows: ELISA, coated hASC.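 Also: antibody binding to plate-coated recombinant human ASC, read as phosphatase substrate absorbance, EC50 from four-parameter variable-slope fit.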

Assay [3] deals with T3, mouse ASC (mouse, UniProt Q9EPB4 1-193).
T3 construct: recombinant mASC in ELISA and SPR; endogenous ASC of J774.A1 cells in Western blot and immunofluorescence; also called mASC
T3 sequence: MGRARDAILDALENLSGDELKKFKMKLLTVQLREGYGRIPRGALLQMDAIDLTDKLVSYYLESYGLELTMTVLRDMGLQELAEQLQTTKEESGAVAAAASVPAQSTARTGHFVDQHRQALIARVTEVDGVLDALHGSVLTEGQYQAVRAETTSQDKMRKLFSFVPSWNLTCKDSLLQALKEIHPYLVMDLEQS
The assay is described as follows: ELISA, coated mASC.

Assay [4] has as its target T2, human ASC (apoptosis associated …). Put plainly: SPR affinity mode, mAb captured.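 Also: Single-cycle SPR kinetics with mAbs captured on goat anti-mouse antibody, double-referenced against blank flow cell and buffer cycle, fitted by a 1:1 kinetic model.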
Assay [5] deals with T4, PYD domain of human ASC (human, UniProt Q9ULZ3 1-91, limits assumed).
T4 construct: biotinylated in BLI; His/MBP-tagged in the alanine ELISA; also called hPYD; human PYD
The assay is described as follows: ELISA, coated hPYD.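 Also: monoclonal antibody binding to plate-coated human ASC PYD measured by ELISA, with a phosphatase substrate absorbance read-out and EC50 from a variable slope curve fit.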

Assay [6] has as its target T2, human ASC (apoptosis associated …). The assay is described as follows: SPR avidity mode, ASC immobilized.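 Also: Single-cycle SPR kinetics on Biacore T200, antibodies injected at 1.2–100 nM (3-fold steps), 300 s association, 900 s dissociation, double-referenced, 1:1 kinetic model fit.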
The target in assay [7] is T4, PYD domain of human ASC. Put plainly: BLI binning on PYD, competitor 401H9B7-AB1.
Assay [8] has as its target T4, PYD domain of human ASC. Put plainly: BLI binning on PYD, competitor 2617C3A8-AB1.
The target of assay [9] is T4, PYD domain of human ASC. The assay is described as follows: BLI binning on PYD, competitor 23E5F7-AB2.
Assay [10] deals with T4, PYD domain of human ASC. Put plainly: BLI binning on PYD, competitor 2610H7D3-AB1.
Assay [11] deals with T3, mouse ASC. The assay is described as follows: cell-based or functional assay.
In assay [12] the target is T4, PYD domain of human ASC. Put plainly: BLI binning on PYD, competitor 22D3A6-AB1.
For assay [13], the target named is T2, human ASC (apoptosis associated …). Put plainly: cell-based or functional assay.
For assay [14] the target is unchanged. The assay is described as follows: cell-based or functional assay. This is another data set of the same source.
Assay [15] has as its target T3, mouse ASC. The assay is described as follows: cell-based or functional assay. The source holds these as a separate data set.
For assay [16], the target named is T3, mouse ASC. Put plainly: SPR affinity mode, mAb captured.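 Also: Single-cycle SPR kinetics with mAbs captured on goat anti-mouse antibody, double-referenced against blank flow cell and buffer cycle, fitted by a 1:1 kinetic model.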
Assay [17] deals with T4, PYD domain of human ASC. Put plainly: BLI binning on PYD, competitor 416E6G4-AB1.
The target of assay [18] is T4, PYD domain of human ASC. The assay is described as follows: BLI binning on PYD, competitor 2626B9D3-AB1.
Assay [19] concerns the target T4, PYD domain of human ASC. Put plainly: BLI binning on PYD, competitor 26A1G2-AB1.
Assay [20] has as its target T4, PYD domain of human ASC. The assay is described as follows: BLI binning on PYD, competitor 31F10C5-AB1.

T4 sequence (Q9ULZ3 1-91 limits assumed): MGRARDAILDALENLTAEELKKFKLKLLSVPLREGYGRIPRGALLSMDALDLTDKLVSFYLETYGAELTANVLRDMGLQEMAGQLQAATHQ

B1: ACI-8016-407E10A9-AB1 (antibody, V domains shown)
VH: EVQLVESGGGFVKPGGSLKLSCAASGFTFSNYAMSWVRQTPEKRLEWVATIYSGGIFTYYPDSVKGRFTISRDSAKNTLYLQMTSLRSEDTAIYYCARLGGSYWGQGTLVTVSA
VL: QAVVTQESALTTSPGETVTLTCRSSTGAVTTNNYANWVQEKPDHFFTGLIGGTDNRPPGVPARFSGSLIGDKAALTITGAQTEDEAIYFCALWYNNHWVFGGGTKLTVL
As usually defined, the EC50 is the concentration at which the effect is half-maximal. Higher therefore signals weaker potency. By koff is commonly meant the first-order rate constant of dissociation. A high value points to fast dissociation. As a reminder, the kon is a measure of how fast the partners come together. Read a high kon as faster complex formation. B1: the half-maximal effective concentration (EC50) in [1] came to 0.07 nM; in [2], 0.06 nM. In addition, the binding result in [3] and in [5] was “no binding” in each case. For the same molecule, the figures for the Kd in assay [4] and in assay [6] were 0.11 nM and less than 0.01 nM, respectively. The results for the koff in assay [4] and in assay [6] were 1.5e-05 s⁻¹ and 5.6e-07 s⁻¹, respectively. Further, the kon in assay [4] amounted to 130000 M⁻¹ s⁻¹; in [6], 110000 M⁻¹ s⁻¹.

B2: ACI-8016-402H11C9-Ab1 (antibody, V domains shown)
VH: QVQLQQSGAELARPGASVKMSCKASGYTFTTYTMHWVKQRPGQGLEWIGYINPSSGYTYYNQNFKDKATLTADKSSSTAYMQLSNLASDDSAVYYCALGGNPAWFAYWGQGTLVTVSA
VL: DIVLTQSPATLSVTPGDSVSLSCRASQSIGNNLHWYQHKSHESPRLLIKYASQSISGIPSRFSGSESGTDFTLSINSVETEDFGIYFCQQSKSWPWTFGGGTKLEIK
On to B2, for which the half-maximal effective concentration (EC50) in assay [1] and in assay [2] was 0.06 nM in each case. The binding result in [3] and in assay [5] was “no binding” throughout. For the same molecule, the Kd in assay [4] is 0.55 nM; in assay [6], 10.5 nM. Besides, in assay [4], the koff was determined as 0.00019 s⁻¹. Also, in assay [4], the kon was determined as 360000 M⁻¹ s⁻¹.

B3: ACI-8016-203G8B10-AB1 (antibody, V domains shown)
VH: EVKLEESGGGLVHPGGSMKLSCVASGFTFSNYWMNWVRQSPEKGLEWVAQIRLKSENYATHSAESVKGRLTISRDDSKSSVYLQMNNLRAEDTGIYYCLAGWGLDYWGQGTTLTVSS
VL: DIVMTQAAFSNPVTLGTSASISCRSSKTLLHSDGFTYLYWYLQRPGQSPQLLIHRVSNLASGVPNRFSGSESGTDFTLRISRVEPEDVGVYYCAQMLELPLTFGSGTKLELK
Regarding B3, the binding result in [1] and in [3] was “no binding” in each case. Also, the EC50 in assay [2] was found to be 0.09 nM; in assay [5], 0.08 nM. Besides, the Kd is 1.34 nM in [4] and 0.35 nM in assay [6]. In addition, the results for the koff in assay [4] and in [6] were 0.00017 s⁻¹ and 2.9e-05 s⁻¹, respectively. Moreover, the on-rate (kon) in [4] turned out to be 130000 M⁻¹ s⁻¹; in [6] it was 83000 M⁻¹ s⁻¹.

B4: ACI-8016-31F10C5-AB1 (antibody, V domains shown)
VH: QVQLQQSEPELARPGASVKLSCTASGYTFINYGVSWVRQRTGQGLEWIGRIYPRSGNTRFNEKFQGKATLTADTSSSTAYMELRSLTSEDSAVYFCTRFPYAFSGNSYWYFDVWGTGTTVTVSS
VL: DIVMTQSHKFMSTSIGDRVSITCKASQDVSAAVAWYQQKPGQSPKLLIYSSSFRYTGVPDRFTGSASGTDFTFTITTVQAEDLAVYYCQQHFDTPYTFGGGTKLEIK
notes: also called 936.31F10C5
In the case of B4, the binding result in [1] is listed as “no binding”. Besides, the half-maximal effective concentration (EC50) in assay [2] was determined as 0.24 nM; in assay [3], 0.3 nM; in assay [5], 0.18 nM. Also, the normalized binding response amounted to 79% in [7]; 3% in assay [8]; 2% in [9]; 2% in [10]; 3% in assay [12]; 4% in assay [17]. Moreover, the normalized binding response in assay [18] was 49%; in assay [19] it was 0%; in assay [20], 1%. Also, in assay [11], the “% IL-1β inhibition, mouse primary microglia, 420 nM mAb” value was 90.5%. For the same molecule, the “IL-1β release, human monocytic cell line, IC50” value in assay [13] was determined as 33 nM. Also, the “Human ASC polymerization assay, IC50” value in [14] came out at 6.3 nM. For the same molecule, the “Mouse ASC polymerization assay, IC50” value in assay [15] was 34.8 nM. Moreover, the Kd is 0.16 nM in assay [4] and 0.36 nM in assay [16]. Further, the koff in assay [4] was determined as 0.000199 s⁻¹; in assay [16] it was 0.000314 s⁻¹. For the same molecule, the on-rate (kon) in [4] worked out at 1.23e+06 M⁻¹ s⁻¹; in [16], 886000 M⁻¹ s⁻¹.

B5: ACI-8016-417E12A8-AB1 (antibody, V domains shown)
VH: QVQLQQPGAELVRPGASVILSCKASGYTFTSSWITWVKQRPGQGLEWIGNIYPSDSYTNSNQKFKDKATLTVDKSSSTAYMHLISPTSEDSAVYYCTRKDFVYDAWYFDVWGAGTTVTVSS
VL: DIVMTQSQKFMSTSVGDRVTVTCKASQNVGTNVAWYQQRPGQSPKPLIYSASYRNSGVPDRFTGSGSGTDFTLTITNVQSEDLAEYFCQQYNNYPLTFGAGTKLELK
B5: the binding result in assay [1] is on record as “no binding”. In addition, the EC50 in [2] came out at 0.07 nM. Also, in [4], the Kd was 0.12 nM, the off-rate (koff) is 2.9e-05 s⁻¹ and the kon stood at 250000 M⁻¹ s⁻¹. Moreover, the EC50 in assay [5] was found to be 0.06 nM. In assay [6], this molecule came in with a Kd of less than 0.01 nM, a koff of 4.1e-07 s⁻¹ and an on-rate constant (kon) of 110000 M⁻¹ s⁻¹.

B6: ACI-8016-421B10C12D2-AB1 (antibody, V domains shown)
VH: EVQLQQSGADLVKPGASVKLSCTASGFNIEDTYIHWVKQRPARGLEWVGRIDPANGNTDYDPKFQGKATMITDTSSNTVYLQVSSLTSEDTAVYFCGRHDGYDMDYWGQGTSVTVSS
VL: DIVMSQSPSSLAVSAGEKVTMSCQSSQSLLNGRTRRNYLAWYQQKPGQSPKLLIYWASTRKSGVPDRFTGSGSGTDFTLTITSVQAEDLAVYYCKQSYNLVTFGAGTKLELK
Turning to B6, in [1], the binding result was “no binding”. The molecule also registered an EC50 in assay [2] of 0.06 nM. In assay [4], this molecule returned a Kd of 0.36 nM, an off-rate (koff) of 0.00017 s⁻¹ and an on-rate constant (kon) of 470000 M⁻¹ s⁻¹. Further, the EC50 in [5] stood at 0.07 nM. In [6], this molecule had a Kd of less than 0.01 nM, a koff of 2.2e-07 s⁻¹ and a kon of 190000 M⁻¹ s⁻¹.
